Assay results published in the supplement of paper PMC9112550, “Optimization of the antimicrobial peptide Bac7 by deep mutational scanning” (BMC Biology, 2022).

System: Escherichia coli TOP10
Assay: shrunken log2 fold change of peptide-encoding DNA abundance (4.5 h post-induction vs induction); higher = less antimicrobial activity (less host growth inhibition)
Details: time post-induction: 4.5 h; library: site-saturation at positions 5, 18, 19, 20
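Note: peptides expressed intracellularly from a pBAD plasmid library in pooled LB shake-flask culture, induced with 0.3% L-arabinose, DNA abundance read by NGS, three biological replicates, DESeq2 with apeglm shrinkage.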

Row | Sequence | shrunken log2 fold change
1 | RRIRVRPPRLPRPRPRPYDPPRP | -0.468
2 | RRIRVRPPRLPRPRPRPYGTPRP | -0.13
3 | RRIRVRPPRLPRPRPRPYHQPRP | 0.00427
4 | RRIRVRPPRLPRPRPRPYIAPRP | -0.608
5 | RRIRVRPPRLPRPRPRPYICPRP | -0.468
6 | RRIRVRPPRLPRPRPRPYIEPRP | -0.584
7 | RRIRVRPPRLPRPRPRPYKKPRP | 0.0251
8 | RRIRVRPPRLPRPRPRPYLIPRP | 0.0388
9 | RRIRVRPPRLPRPRPRPYMQPRP | -0.547
10 | RRIRVRPPRLPRPRPRPYNCPRP | -0.432
11 | RRIRVRPPRLPRPRPRPYQAPRP | -0.293
12 | RRIRVRPPRLPRPRPRPYQIPRP | 0.043
13 | RRIRVRPPRLPRPRPRPYRFPRP | -0.0944
14 | RRIRVRPPRLPRPRPRPYRGPRP | -0.402
15 | RRIRVRPPRLPRPRPRPYSDPRP | -0.145
16 | RRIRVRPPRLPRPRPRPYSEPRP | -0.217
17 | RRIRVRPPRLPRPRPRPYSKPRP | 0.12
18 | RRIRVRPPRLPRPRPRPYTHPRP | -0.912
19 | RRIRVRPPRLPRPRPRPYTLPRP | -0.666
20 | RRIRVRPPRLPRPRPRPYTVPRP | -0.0784
21 | RRIRVRPPRLPRPRPRPYVNPRP | 0.0651
22 | RRIRVRPPRLPRPRPRPYWDPRP | 0.0849
23 | RRIRVRPPRLPRPRPRPYYEPRP | -0.632
24 | RRIRWRPPRLPRPRPRPACFPRP | 0.513
25 | RRIRWRPPRLPRPRPRPACMPRP | 0.164

Row | Sequence | shrunken log2 fold change
26 | RRIRWRPPRLPRPRPRPADLPRP | 0.331
27 | RRIRWRPPRLPRPRPRPAEAPRP | 0.0865
28 | RRIRWRPPRLPRPRPRPAEHPRP | -0.0393
29 | RRIRWRPPRLPRPRPRPAEMPRP | 0.213
30 | RRIRWRPPRLPRPRPRPAESPRP | 0.0626
31 | RRIRWRPPRLPRPRPRPAFGPRP | 0.53
32 | RRIRWRPPRLPRPRPRPAFTPRP | 0.0598
33 | RRIRWRPPRLPRPRPRPAHCPRP | -0.0174
34 | RRIRWRPPRLPRPRPRPAHWPRP | 0.0695
35 | RRIRWRPPRLPRPRPRPAIDPRP | 0.294
36 | RRIRWRPPRLPRPRPRPAIVPRP | 0.144
37 | RRIRWRPPRLPRPRPRPAKGPRP | -0.0312
38 | RRIRWRPPRLPRPRPRPAKSPRP | 0.228
39 | RRIRWRPPRLPRPRPRPAKVPRP | -0.177
40 | RRIRWRPPRLPRPRPRPALFPRP | 0.496
41 | RRIRWRPPRLPRPRPRPALSPRP | -0.0314
42 | RRIRWRPPRLPRPRPRPAMCPRP | 0.0884
43 | RRIRWRPPRLPRPRPRPAMVPRP | 0.483
44 | RRIRWRPPRLPRPRPRPAPFPRP | 0.0259
45 | RRIRWRPPRLPRPRPRPAPRPRP | 1.12
46 | RRIRWRPPRLPRPRPRPAPTPRP | 0.695
47 | RRIRWRPPRLPRPRPRPAQCPRP | -0.00191
48 | RRIRWRPPRLPRPRPRPAQGPRP | 0.27
49 | RRIRWRPPRLPRPRPRPARCPRP | 0.209
50 | RRIRWRPPRLPRPRPRPARLPRP | 0.523

Row | Sequence | shrunken log2 fold change
51 | RRIRWRPPRLPRPRPRPATQPRP | 0.105
52 | RRIRWRPPRLPRPRPRPAVGPRP | 0.229
53 | RRIRWRPPRLPRPRPRPAVYPRP | -0.682
54 | RRIRWRPPRLPRPRPRPAWAPRP | 0.579
55 | RRIRWRPPRLPRPRPRPAWRPRP | 0.642
56 | RRIRWRPPRLPRPRPRPCAKPRP | -0.0723
57 | RRIRWRPPRLPRPRPRPCAMPRP | -0.272
58 | RRIRWRPPRLPRPRPRPCAPPRP | -0.0663
59 | RRIRWRPPRLPRPRPRPCCCPRP | 0.129
60 | RRIRWRPPRLPRPRPRPCCEPRP | -0.00563
61 | RRIRWRPPRLPRPRPRPCCSPRP | -0.0402
62 | RRIRWRPPRLPRPRPRPCDHPRP | -0.00122
63 | RRIRWRPPRLPRPRPRPCEFPRP | -0.0211
64 | RRIRWRPPRLPRPRPRPCEIPRP | -0.243
65 | RRIRWRPPRLPRPRPRPCFFPRP | 0.0878
66 | RRIRWRPPRLPRPRPRPCGCPRP | -0.0615
67 | RRIRWRPPRLPRPRPRPCHNPRP | -1.64
68 | RRIRWRPPRLPRPRPRPCHTPRP | -0.53
69 | RRIRWRPPRLPRPRPRPCHWPRP | -0.116
70 | RRIRWRPPRLPRPRPRPCIMPRP | -0.339
71 | RRIRWRPPRLPRPRPRPCKLPRP | -0.694
72 | RRIRWRPPRLPRPRPRPCMCPRP | -0.0735
73 | RRIRWRPPRLPRPRPRPCMKPRP | 0.00396
74 | RRIRWRPPRLPRPRPRPCNDPRP | -0.172
75 | RRIRWRPPRLPRPRPRPCNRPRP | -0.0268

Row | Sequence | shrunken log2 fold change
76 | RRIRWRPPRLPRPRPRPCQCPRP | -0.000687
77 | RRIRWRPPRLPRPRPRPCRCPRP | -0.0961
78 | RRIRWRPPRLPRPRPRPCRQPRP | -0.134
79 | RRIRWRPPRLPRPRPRPCRRPRP | 0.0574
80 | RRIRWRPPRLPRPRPRPCRTPRP | 0.112
81 | RRIRWRPPRLPRPRPRPCSTPRP | 0.137
82 | RRIRWRPPRLPRPRPRPCWKPRP | -0.00256
83 | RRIRWRPPRLPRPRPRPDAEPRP | 1.89
84 | RRIRWRPPRLPRPRPRPDATPRP | 2.57
85 | RRIRWRPPRLPRPRPRPDAVPRP | 0.4
86 | RRIRWRPPRLPRPRPRPDDLPRP | -0.024
87 | RRIRWRPPRLPRPRPRPDDVPRP | 0.0399
88 | RRIRWRPPRLPRPRPRPDDWPRP | 0.288
89 | RRIRWRPPRLPRPRPRPDDYPRP | 0.0299
90 | RRIRWRPPRLPRPRPRPDGNPRP | 0.276
91 | RRIRWRPPRLPRPRPRPDHGPRP | -0.104
92 | RRIRWRPPRLPRPRPRPDHQPRP | -0.197
93 | RRIRWRPPRLPRPRPRPDIFPRP | -0.029
94 | RRIRWRPPRLPRPRPRPDKTPRP | -0.0185
95 | RRIRWRPPRLPRPRPRPDLVPRP | 0.0575
96 | RRIRWRPPRLPRPRPRPDMLPRP | 0.142
97 | RRIRWRPPRLPRPRPRPDMVPRP | 0.0298
98 | RRIRWRPPRLPRPRPRPDNWPRP | 0.104
99 | RRIRWRPPRLPRPRPRPDPDPRP | 0.545
100 | RRIRWRPPRLPRPRPRPDQEPRP | -0.00154

Row | Sequence | shrunken log2 fold change
101 | RRIRWRPPRLPRPRPRPDRDPRP | 0.0716
102 | RRIRWRPPRLPRPRPRPDRKPRP | -0.0752
103 | RRIRWRPPRLPRPRPRPDRSPRP | 0.0405
104 | RRIRWRPPRLPRPRPRPDTEPRP | 0.14
105 | RRIRWRPPRLPRPRPRPDTGPRP | -0.373
106 | RRIRWRPPRLPRPRPRPDWDPRP | 0.243
107 | RRIRWRPPRLPRPRPRPDWSPRP | 0.0189
108 | RRIRWRPPRLPRPRPRPEADPRP | 1.5
109 | RRIRWRPPRLPRPRPRPECAPRP | 0.852
110 | RRIRWRPPRLPRPRPRPECVPRP | 1.26
111 | RRIRWRPPRLPRPRPRPEEYPRP | 0.113
112 | RRIRWRPPRLPRPRPRPEFDPRP | 0.198
113 | RRIRWRPPRLPRPRPRPEFYPRP | -0.129
114 | RRIRWRPPRLPRPRPRPEGSPRP | 0.754
115 | RRIRWRPPRLPRPRPRPEHHPRP | -0.0625
116 | RRIRWRPPRLPRPRPRPEHTPRP | 0.489
117 | RRIRWRPPRLPRPRPRPEMVPRP | -0.222
118 | RRIRWRPPRLPRPRPRPENEPRP | 0.194
119 | RRIRWRPPRLPRPRPRPENPPRP | -0.0117
120 | RRIRWRPPRLPRPRPRPENQPRP | 0.353
121 | RRIRWRPPRLPRPRPRPERAPRP | 0.707
122 | RRIRWRPPRLPRPRPRPERKPRP | -0.0287
123 | RRIRWRPPRLPRPRPRPEVHPRP | -0.039
124 | RRIRWRPPRLPRPRPRPEWAPRP | 0.497
125 | RRIRWRPPRLPRPRPRPEYDPRP | 0.695

Row | Sequence | shrunken log2 fold change
126 | RRIRWRPPRLPRPRPRPEYFPRP | -0.0445
127 | RRIRWRPPRLPRPRPRPEYNPRP | 0.195
128 | RRIRWRPPRLPRPRPRPEYSPRP | 0.0675
129 | RRIRWRPPRLPRPRPRPFAKPRP | 0.382
130 | RRIRWRPPRLPRPRPRPFASPRP | 0.177
131 | RRIRWRPPRLPRPRPRPFCLPRP | 0.0169
132 | RRIRWRPPRLPRPRPRPFDDPRP | -0.121
133 | RRIRWRPPRLPRPRPRPFFLPRP | -0.0114
134 | RRIRWRPPRLPRPRPRPFGEPRP | 0.439
135 | RRIRWRPPRLPRPRPRPFHLPRP | -0.818
136 | RRIRWRPPRLPRPRPRPFIAPRP | -0.291
137 | RRIRWRPPRLPRPRPRPFIPPRP | -1.15
138 | RRIRWRPPRLPRPRPRPFKEPRP | -0.139
139 | RRIRWRPPRLPRPRPRPFLYPRP | -0.0978
140 | RRIRWRPPRLPRPRPRPFMHPRP | -0.153
141 | RRIRWRPPRLPRPRPRPFNCPRP | -0.118
142 | RRIRWRPPRLPRPRPRPFNHPRP | -0.405
143 | RRIRWRPPRLPRPRPRPFNWPRP | -0.0369
144 | RRIRWRPPRLPRPRPRPFPDPRP | 0.116
145 | RRIRWRPPRLPRPRPRPFPPPRP | -0.0255
146 | RRIRWRPPRLPRPRPRPFQRPRP | 0.00938
147 | RRIRWRPPRLPRPRPRPFVAPRP | 0.292
148 | RRIRWRPPRLPRPRPRPFWFPRP | -0.119
149 | RRIRWRPPRLPRPRPRPFYIPRP | -0.632
150 | RRIRWRPPRLPRPRPRPFYQPRP | -0.0811
